According to PMC3107238:

Biological target: plasma proteins (rat (endogenous in serum))
Experiment: SEC

Substance	percent plasma protein binding
L56A mutant of sTEM8 (from UniProt Q9H6X2 38-220) (domain or fragment)	> 90%
soluble vWA domain of tumor endothelium marker-8 (sTEM8) (from UniProt Q9H6X2 38-220) (domain or fragment)	> 90%
